Laboratory results taken from patent US9327008B2, “Cell-permeant peptide-based inhibitor of kinases” (Purdue Research Foundation, priority 2008, dated 2016).

Assays:
Assay type in all cases: biochemical
BTK = target: T1, BTK (Homo sapiens, UniProt Q06187); test: Millipore radiometric kinase activity assay, BTK (h)
T1 construct: purchased Millipore (assay service)
Excerpt: A commercial radiometric assay service (Millipore, Billerica, Mass.) was used to test the specificity and potency of peptides containing a coupled transduction domain and therapeutic domain, hereinafter “complete peptides”). In these assays, if the kinase is not inhibited by an inhibitor peptide, a positively charged substrate is phosphorylated with a radiolabeled phosphate group from an ATP. […] The reaction is initiated by the addition of the MgATP mix. […] IC50 values for inhibitor peptides were determined using Millipore's IC50Profiler Express service. The IC50 value was estimated from a 10-point curve of one-half log dilutions. […] In both assays, compounds were supplied in dimethylsulfoxide (DMSO). Every kinase activity measurement was conducted in duplicate. Therapeutic inhibitor peptides were assayed for activity against human kinases related to MK2, cell viability, or human disease. […] Error is reported as the standard deviation between 2 samples, and “c” is rat AMPK whereas all other kinases used are human kinases.

CK2 = target: T2, CK2 (Homo sapiens, UniProt P68400); test: Millipore radiometric kinase activity assay, CK2 (h)
T2 construct: purchased Millipore (assay service)
T2 sequence (P68400 whole entry): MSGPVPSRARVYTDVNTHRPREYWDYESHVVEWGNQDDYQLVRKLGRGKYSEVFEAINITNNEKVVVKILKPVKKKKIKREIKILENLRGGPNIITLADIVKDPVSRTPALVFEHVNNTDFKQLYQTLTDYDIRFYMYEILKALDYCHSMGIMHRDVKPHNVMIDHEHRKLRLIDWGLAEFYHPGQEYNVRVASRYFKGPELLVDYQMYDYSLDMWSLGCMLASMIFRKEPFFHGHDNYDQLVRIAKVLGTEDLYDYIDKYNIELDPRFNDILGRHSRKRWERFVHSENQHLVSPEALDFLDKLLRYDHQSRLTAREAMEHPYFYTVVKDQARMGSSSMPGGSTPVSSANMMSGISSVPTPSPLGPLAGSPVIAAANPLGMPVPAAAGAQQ
T2 sequence (P67870 whole entry partner): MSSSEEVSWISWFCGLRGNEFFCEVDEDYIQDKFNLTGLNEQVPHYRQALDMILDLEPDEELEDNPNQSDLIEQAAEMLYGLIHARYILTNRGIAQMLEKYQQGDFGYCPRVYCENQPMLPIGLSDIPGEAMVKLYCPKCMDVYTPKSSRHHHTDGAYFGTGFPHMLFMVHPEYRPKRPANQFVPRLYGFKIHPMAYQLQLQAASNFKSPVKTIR
Method: (§1) A commercial radiometric assay service (Millipore, Billerica, Mass.) was used to test the specificity and potency of peptides containing a coupled transduction domain and therapeutic domain, hereinafter “complete peptides”). In these assays, if the kinase is not inhibited by an inhibitor peptide, a positively charged substrate is phosphorylated with a radiolabeled phosphate group from an ATP.
In a final reaction volume of 25 μL, CK2 (h) (5-10 mU) is incubated with 20 mM HEPES pH 7.6, 0.15 M NaCl, 0.1 mM EDTA, 5 mM DTT, 0.1% Triton X-100, 165 μM […] [SEQ ID NO: 55], 10 mM MgAcetate and [γ-^33P-ATP] (specific activity approx. 500 cpm/pmol, concentration as required). The reaction is initiated by the addition of the MgATP mix. After incubation for 40 minutes at room temperature, the reaction is stopped by the addition of 5 μL of a 3% phosphoric acid solution. 10 μL of the reaction is then spotted onto a P30 filtermat and washed three times for 5 minutes in 75 mM phosphoric acid and once in methanol prior to drying and scintillation counting.
(§2) IC50 values for inhibitor peptides were determined using Millipore's IC50Profiler Express service. The IC50 value was estimated from a 10-point curve of one-half log dilutions. For peptides tested for specificity, the concentration of the peptides that inhibited approximately 95% of MK2 activity was chosen to profile against a battery of kinases related to MK2, cell viability, or human disease from MilliporeKinaseProfiler service. In both assays, compounds were supplied in dimethylsulfoxide (DMSO). Every kinase activity measurement was conducted in duplicate.
(§3) Therapeutic inhibitor peptides were assayed for activity against human kinases related to MK2, cell viability, or human disease. The assays were performed using concentrations of therapeutic inhibitor peptides that yielded 2% to 8% of normal MK2 activity. Error is reported as the standard deviation between 2 samples, and “c” is rat AMPK whereas all other kinases used are human kinases.

MAPK1 = target: T3, MAPK1 (Homo sapiens, UniProt P27361); test: Millipore radiometric kinase activity assay, MAPK1 (h)
T3 construct: purchased Millipore (radiometric assay service)
T3 sequence (P27361 whole entry): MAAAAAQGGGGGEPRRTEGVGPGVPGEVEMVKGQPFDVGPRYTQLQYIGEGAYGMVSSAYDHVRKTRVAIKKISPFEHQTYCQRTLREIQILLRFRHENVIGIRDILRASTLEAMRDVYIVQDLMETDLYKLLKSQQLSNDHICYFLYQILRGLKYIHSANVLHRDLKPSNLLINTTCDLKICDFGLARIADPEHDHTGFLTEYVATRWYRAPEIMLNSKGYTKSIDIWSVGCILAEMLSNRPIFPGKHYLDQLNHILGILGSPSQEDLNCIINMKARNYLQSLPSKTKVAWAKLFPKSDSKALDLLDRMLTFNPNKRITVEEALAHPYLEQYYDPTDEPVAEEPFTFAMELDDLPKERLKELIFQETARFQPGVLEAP
Method: as §1
In a final reaction volume of 25 μL, MAPK1 (h) (5-10 mU) is incubated with 25 mM Tris pH 7.5, 0.02 mM EGTA, 250 μM peptide, 10 mM MgAcetate and [γ-^33P-ATP] (specific activity approx. 500 cpm/pmol, concentration as required). The reaction is initiated by the addition of the MgATP mix. After incubation for 40 minutes at room temperature, the reaction is stopped by the addition of 5 μL of a 3% phosphoric acid solution. 10 μL of the reaction is then spotted onto a P30 filtermat and washed three times for 5 minutes in 75 mM phosphoric acid and once in methanol prior to drying and scintillation counting.
as §2, §3

PKA = target: T4, PKA (Homo sapiens, UniProt P17612); test: Millipore radiometric kinase activity assay, PKA (h)
T4 construct: purchased Millipore (radiometric assay service)
Method: as §1
(§4) In a final reaction volume of 25 μL, PKA (h) (5-10 mU) is incubated with 8 mM MOPS pH 7.0, 0.2 mM EDTA, 30 μM LRRASLG [SEQ ID NO: 50] (Kemptide), 10 mM MgAcetate and [γ-^33P-ATP] (specific activity approx. 500 cpm/pmol, concentration as required). The reaction is initiated by the addition of the MgATP mix. After incubation for 40 minutes at room temperature, the reaction is stopped by the addition of 5 μL of a 3% phosphoric acid solution, 10 μL of the reaction is then spotted onto a P30 filtermat and washed three times for 5 minutes in 50 mM phosphoric acid and once in methanol prior to drying and scintillation counting.
as §2, §3

PKG1β = target: T5, PKG1β (Homo sapiens, UniProt Q13976); test: Millipore radiometric kinase activity assay, PKG1β (h)
T5 construct: purchased Millipore (radiometric assay service)
T5 sequence (Q13976 1-686 isoform Q13976-2): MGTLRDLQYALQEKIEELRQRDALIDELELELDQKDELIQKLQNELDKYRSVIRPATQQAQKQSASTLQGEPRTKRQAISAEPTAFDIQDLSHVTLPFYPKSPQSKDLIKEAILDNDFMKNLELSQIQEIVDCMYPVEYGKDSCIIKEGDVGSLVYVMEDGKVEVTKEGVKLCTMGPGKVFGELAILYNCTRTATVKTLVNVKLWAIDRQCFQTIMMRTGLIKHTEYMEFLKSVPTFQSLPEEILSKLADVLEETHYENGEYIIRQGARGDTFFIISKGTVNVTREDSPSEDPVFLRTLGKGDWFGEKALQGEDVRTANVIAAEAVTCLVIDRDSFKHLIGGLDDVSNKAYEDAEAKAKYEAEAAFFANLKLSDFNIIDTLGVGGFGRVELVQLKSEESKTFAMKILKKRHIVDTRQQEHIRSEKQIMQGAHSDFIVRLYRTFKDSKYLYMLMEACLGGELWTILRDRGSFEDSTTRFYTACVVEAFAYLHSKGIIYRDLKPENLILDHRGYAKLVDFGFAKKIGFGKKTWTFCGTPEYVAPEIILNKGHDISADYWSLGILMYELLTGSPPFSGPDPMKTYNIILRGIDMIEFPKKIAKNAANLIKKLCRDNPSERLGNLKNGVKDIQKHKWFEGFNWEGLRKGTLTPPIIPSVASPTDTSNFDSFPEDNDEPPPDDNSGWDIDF
Method: as §1
as §4, with “μL, PKG1β” for “μL, PKA”, “EDTA, 10” for “EDTA, 30”, “μM cGMP, 200 μM […]” for “μM LRRASLG”, “NO: 62],” for “NO: 50] (Kemptide),”, “acid solution.” for “acid solution,”, “in 75” for “in 50”
as §2, §3

T1 sequence (Q06187 whole entry): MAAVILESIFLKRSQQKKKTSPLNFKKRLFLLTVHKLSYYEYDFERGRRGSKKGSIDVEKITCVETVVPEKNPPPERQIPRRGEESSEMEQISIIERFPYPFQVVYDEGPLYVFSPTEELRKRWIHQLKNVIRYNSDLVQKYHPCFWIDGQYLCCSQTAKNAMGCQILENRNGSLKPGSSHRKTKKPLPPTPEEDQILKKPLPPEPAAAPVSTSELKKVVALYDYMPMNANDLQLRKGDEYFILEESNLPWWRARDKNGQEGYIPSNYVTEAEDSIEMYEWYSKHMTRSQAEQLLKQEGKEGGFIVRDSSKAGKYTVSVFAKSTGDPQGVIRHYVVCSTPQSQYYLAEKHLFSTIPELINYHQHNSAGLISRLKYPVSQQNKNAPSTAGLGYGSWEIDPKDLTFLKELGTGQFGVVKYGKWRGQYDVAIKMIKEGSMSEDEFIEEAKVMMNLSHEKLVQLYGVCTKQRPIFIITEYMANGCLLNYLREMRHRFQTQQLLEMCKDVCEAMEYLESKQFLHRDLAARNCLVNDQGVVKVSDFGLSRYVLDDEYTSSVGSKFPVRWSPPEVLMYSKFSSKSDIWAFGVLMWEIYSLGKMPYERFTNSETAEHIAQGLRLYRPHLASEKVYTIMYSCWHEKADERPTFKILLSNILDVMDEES

| Sequence | BTK Kinase Activity (%) (+SD %) (BTK; peptide 100 μM) | CK2 Kinase Activity (%) (+SD %) (CK2; peptide 100 μM) | MAPK1 Kinase Activity (%) (+SD %) (MAPK1; peptide 100 μM) | PKA Kinase Activity (%) (+SD %) (PKA; peptide 100 μM) | PKG1β Kinase Activity (%) (+SD %) (PKG1β; peptide 100 μM) | BTK Kinase Activity (%) (+SD %) (BTK; peptide 30 μM) | CK2 Kinase Activity (%) (+SD %) (CK2; peptide 30 μM) | MAPK1 Kinase Activity (%) (+SD %) (MAPK1; peptide 30 μM) | PKA Kinase Activity (%) (+SD %) (PKA; peptide 30 μM) | PKG1β Kinase Activity (%) (+SD %) (PKG1β; peptide 30 μM) |
| --- | --- | --- | --- | --- | --- | --- | --- | --- | --- | --- |
| KAFAKLAARLYRKALARQLGVAA | 16 (3) % | 79 (12) % | 108 (1) % | 103 (1) % | 24 (5) % |  |  |  |  |  |
| WLRRIKAWLRRIKALNRQLGVAA | 19 (1) % | 80 (14) % | 104 (3) % | 76 (8) % | 15 (1) % | 5 (0) % | 114 (4) % | 121 (5) % | 80 (1) % | 15 (4) % |
